Assay results as given in article PMC11994318, “In vitro characterization of the yeast DEAH/RHA RNA helicase Dhr1” (The Journal of Biological Chemistry, 2025).

T1: Utp14-G (aa 710–800), fusion to maltose binding protein (Saccharomyces cerevisiae, UniProt Q04500 710-800)
T1 construct: Purified as a fusion to MBP; the tag is cleavable with TEV protease but no cleavage is described; source: E. coli Codon+ BL21 (DE3) RIL (AJE854), purified (HisTrap HP, HiTrap Q HP); not shown: MBP, N-terminal, kept
T1 sequence (looked up): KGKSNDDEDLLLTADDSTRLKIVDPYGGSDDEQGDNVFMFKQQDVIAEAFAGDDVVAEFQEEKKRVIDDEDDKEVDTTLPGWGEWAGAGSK


These binders were tested against T1, Utp14-G (aa 710–800), fusion to maltose … (assay: mass photometry; Dhr1 variant and Utp14-G mixed at a 1:1 ratio; TwoMP instrument, room temperature (25.3 °C); 40 mM Tris–HCl pH 8.0, 40 mM KCl, 150 mM NaCl, 2 mM NaOAc, 2 mM DTT, 10 mM MgCl2, 4% glycerol). Settings: both partners purified.

Row | percent complex [%] | Binder
1 | 23 | ΔN-Dhr1-WT (Δ1 to 375-Dhr1) (domain or fragment, Saccharomyces cerevisiae, UniProt Q04217 376-1267, looked up, Dhr1 (Ecm16), DEAH/RHA RNA helicase of Saccharomyces cerevisiae, residues 1-375 deleted; Cloned into pET21a(+) with a C-terminal Hisx6 tag; also called ΔN-WT; dhr1-Δ1–375 (ΔN); source: E. coli Codon+ BL21 (DE3) RIL (AJE854), purified (HisTrap FF, HiTrap Capto SP)) VEVSRSDEIQKARIQLPVFGEEHKIMEAIHHNDVVIICGETGSGKTTQVPQFLYEAGFGAEDSPDYPGMVGITQPRRVAAVSMAERVANELGDHGHKVGYQIRFDSTAKEDTKVKFMTDGVLLREMMHDFKLTKYSSIIIDEAHERNINTDILIGMLSRCVRLRAKLHKENPIEHKKLKLIIMSATLRVSDFSENKTLFPIAPPVLQVDARQFPVSIHFNRRTAFNYTDEAFRKTCKIHQKLPPGAILVFLTGQQEITHMVKRLRKEFPFKKNSKYNKDLETPVSKMGINSKTTDLEAEDIDFSVQVIDQDKFKSAIRYEEDEGNSGNGEDEEDEEEEGFEEVLTEGQTANDPLYVLPLYSLLPTKEQMRVFQKPPQGSRLCIVATNVAETSLTIPGVRYVVDSGRSKERKYNESNGVQSFEVGWVSKASANQRSGRAGRTGPGHCYRLYSSAVFEHDFEQFSKPEILRMPVESIVLQMKSMAIHNIINFPFPTPPDRVALSKAIQLLQYLGALDNKEMITEDGKKMSLFPLSPRFSKMLLVSDEKACLPYIVAIVSALSVGDPFINEFELGINEISRKPNPDENLDDKIREHDESTPGMDPELKKELRSKFYKSRSQFSKLDKFSDVFRLLSVVSAMDYVPKEQKEIFMKKNFLRGKLMEEIVKLRKQLMYIIKSNTSKENIAVVIRNEDLKSDIPSVIQIKLLKQMICAGFVDHVAVRADVLFPDDAKITNRTSIINIPYIPVLATRTPNIEDCFVYIHPTSILNNLGEMPPKYMLYYSLHLGGNNKTRMNTLCDIASTPLANIARKGLLLTYSKPLTGQGLKTVNLSPTERYCYVVPRFGSTVDNDLKIGWDLNPIAVHQKKQKGQWTVIKFITRKGFQTITGEEKEKK
2 | 16 | ΔN-Dhr1-YCK (RecA2 surface mutant) (domain or fragment, Saccharomyces cerevisiae, UniProt Q04217 376-1267, looked up, Dhr1 (Ecm16) of Saccharomyces cerevisiae, residues 1-375 deleted, with three mutations on the RecA2 surface; also called ΔN-Dhr1-RecA2; ΔN-Dhr1-RecA2-mutants; source: E. coli Codon+ BL21 (DE3) RIL (AJE854), purified (HisTrap FF, HiTrap Capto SP)) VEVSRSDEIQKARIQLPVFGEEHKIMEAIHHNDVVIICGETGSGKTTQVPQFLYEAGFGAEDSPDYPGMVGITQPRRVAAVSMAERVANELGDHGHKVGYQIRFDSTAKEDTKVKFMTDGVLLREMMHDFKLTKYSSIIIDEAHERNINTDILIGMLSRCVRLRAKLHKENPIEHKKLKLIIMSATLRVSDFSENKTLFPIAPPVLQVDARQFPVSIYFNCRTAFNYTDEAFRKTCKIHQKLPPGAILVFLTGQQEITHMVKRLRKEFPFKKNSKYNKDLETPVSKMGINSKTTDLEAEDIDFSVQVIDQDKFKSAIRYEEDEGNSGNGEDEEDEEEEGFEEVLTEGQTANDPLYVLPLYSLLPTKEQMRVFQKPPQGSRLCIVATNVAETSLTIPGVRYVVDSGRSKERKYNESNGVQSFEVGWVSKASANQRSGRAGRTGPGHCYRLYSSAVFKHDFEQFSKPEILRMPVESIVLQMKSMAIHNIINFPFPTPPDRVALSKAIQLLQYLGALDNKEMITEDGKKMSLFPLSPRFSKMLLVSDEKACLPYIVAIVSALSVGDPFINEFELGINEISRKPNPDENLDDKIREHDESTPGMDPELKKELRSKFYKSRSQFSKLDKFSDVFRLLSVVSAMDYVPKEQKEIFMKKNFLRGKLMEEIVKLRKQLMYIIKSNTSKENIAVVIRNEDLKSDIPSVIQIKLLKQMICAGFVDHVAVRADVLFPDDAKITNRTSIINIPYIPVLATRTPNIEDCFVYIHPTSILNNLGEMPPKYMLYYSLHLGGNNKTRMNTLCDIASTPLANIARKGLLLTYSKPLTGQGLKTVNLSPTERYCYVVPRFGSTVDNDLKIGWDLNPIAVHQKKQKGQWTVIKFITRKGFQTITGEEKEKK
3 | 48 | ΔN-Dhr1-ΔSKTTD (domain or fragment, Saccharomyces cerevisiae, UniProt Q04217 376-1267, looked up, Dhr1 (Ecm16) of Saccharomyces cerevisiae, residues 1-375 deleted and the five residues SKTTD (aa 666-670) of loop 1 deleted; also called ΔN-ΔSKTTD; ΔNΔSKTTD; source: E. coli Codon+ BL21 (DE3) RIL (AJE854), purified (HisTrap FF, HiTrap Capto SP)) VEVSRSDEIQKARIQLPVFGEEHKIMEAIHHNDVVIICGETGSGKTTQVPQFLYEAGFGAEDSPDYPGMVGITQPRRVAAVSMAERVANELGDHGHKVGYQIRFDSTAKEDTKVKFMTDGVLLREMMHDFKLTKYSSIIIDEAHERNINTDILIGMLSRCVRLRAKLHKENPIEHKKLKLIIMSATLRVSDFSENKTLFPIAPPVLQVDARQFPVSIHFNRRTAFNYTDEAFRKTCKIHQKLPPGAILVFLTGQQEITHMVKRLRKEFPFKKNSKYNKDLETPVSKMGINLEAEDIDFSVQVIDQDKFKSAIRYEEDEGNSGNGEDEEDEEEEGFEEVLTEGQTANDPLYVLPLYSLLPTKEQMRVFQKPPQGSRLCIVATNVAETSLTIPGVRYVVDSGRSKERKYNESNGVQSFEVGWVSKASANQRSGRAGRTGPGHCYRLYSSAVFEHDFEQFSKPEILRMPVESIVLQMKSMAIHNIINFPFPTPPDRVALSKAIQLLQYLGALDNKEMITEDGKKMSLFPLSPRFSKMLLVSDEKACLPYIVAIVSALSVGDPFINEFELGINEISRKPNPDENLDDKIREHDESTPGMDPELKKELRSKFYKSRSQFSKLDKFSDVFRLLSVVSAMDYVPKEQKEIFMKKNFLRGKLMEEIVKLRKQLMYIIKSNTSKENIAVVIRNEDLKSDIPSVIQIKLLKQMICAGFVDHVAVRADVLFPDDAKITNRTSIINIPYIPVLATRTPNIEDCFVYIHPTSILNNLGEMPPKYMLYYSLHLGGNNKTRMNTLCDIASTPLANIARKGLLLTYSKPLTGQGLKTVNLSPTERYCYVVPRFGSTVDNDLKIGWDLNPIAVHQKKQKGQWTVIKFITRKGFQTITGEEKEKK
